Assay results published in patent US20010029022A1 (PHARMACIA AND UPJOHN, published 2001).

B1: GST-HPV16 E7 (other)
chain: MHGDTPTLHEYMLDLQPETTDLYCYEQLNDSSEEEDEIDGPAGQAEPDRAHYNIVTFCCKCDSTLRLCVQSTHVDIRTLEDLLMGTLGIVCPICSQKP
notes: range 1-98; GST fusion from pGEX-4T-3; also called GST-16E7; full length GST-HPV 16 E7; not shown: glutathione-S-transferase (GST) moiety of vector pGEX-4T-3, at the amino-terminus
B2: GST-HPV31 E7 (other)
chain: MRGETPTLQDYVLDLQPEATDLHCYEQLPDSSDEEDVIDSPAGQAEPDTSNYNIVTFCCQCKSTLRLCVQSTQVDIRILQELLMGSFGIVCPNCSTRL
notes: GST fusion from pGEX-4T-3; also called GST-31E7; not shown: glutathione-S-transferase (GST) moiety of vector pGEX-4T-3, at the amino-terminus

Key:
cyclin A/CDK2 complex = cyclin A/CDK2 complex (UniProt P20248 1-432; P24941 1-298); test: cell-based or functional assay
[1] = molecular target: CDK2 kinase complex (cyclin not given) (UniProt P24941 1-298); test: cell-based or functional assay
His-p27N = molecular target: T1, His-p27N (human, UniProt P46527 1-101); test: GST pull-down on glutathione-agarose beads, SDS-PAGE, Coomassie blue and Western blot
T1 construct: range 1-101; also called amino terminal residues 1-101 from p27; not shown: poly-histidine tag from the expression vector

His-p27C = molecular target: T2, His-p27C (human, UniProt P46527 95-198); test: as above
T2 construct: range 95-198; also called carboxy terminal residues 95-198 of p27; not shown: poly-histidine tag from the expression vector

GST-HPV16 E7 = molecular target: B1; test: as above
GST-HPV31 E7 = molecular target: B2; test: as above

T1 sequence (P46527 1-101): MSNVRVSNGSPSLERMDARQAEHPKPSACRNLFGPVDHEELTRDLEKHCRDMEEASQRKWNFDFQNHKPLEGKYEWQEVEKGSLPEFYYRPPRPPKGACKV
T2 sequence (P46527 95-198): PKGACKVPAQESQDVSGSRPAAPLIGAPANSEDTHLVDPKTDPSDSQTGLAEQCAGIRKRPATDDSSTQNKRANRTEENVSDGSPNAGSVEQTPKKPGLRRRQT
Chain of cyclin A/CDK2 complex (P20248 whole entry, one chain of several): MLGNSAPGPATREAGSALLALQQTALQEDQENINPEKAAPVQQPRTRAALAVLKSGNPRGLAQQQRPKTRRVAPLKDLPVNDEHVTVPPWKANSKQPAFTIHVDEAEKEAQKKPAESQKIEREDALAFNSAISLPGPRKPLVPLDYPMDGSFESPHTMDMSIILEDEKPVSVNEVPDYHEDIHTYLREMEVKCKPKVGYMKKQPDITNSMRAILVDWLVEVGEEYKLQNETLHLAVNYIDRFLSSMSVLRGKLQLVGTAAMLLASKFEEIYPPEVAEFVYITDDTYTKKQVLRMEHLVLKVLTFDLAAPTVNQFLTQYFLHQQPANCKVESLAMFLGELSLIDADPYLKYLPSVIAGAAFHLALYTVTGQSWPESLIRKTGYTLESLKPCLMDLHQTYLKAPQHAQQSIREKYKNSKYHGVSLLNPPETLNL

| Binder | cyclinA/CDK2 histone H1 kinase activity (PhosphorImager) (cyclin A/CDK2 complex) | CDK2 histone kinase activity, fold activation [1] | binding result (His-p27N) | binding result (His-p27C) | binding result (GST-HPV16 E7) | binding result (GST-HPV31 E7) |
| --- | --- | --- | --- | --- | --- | --- |
| B1 | 26 fold | 18.2 fold | no binding | no binding |  |  |
| B2 |  | 12.6 fold | no binding | no binding |  |  |
| His-p21C (other, range 72-164; also called carboxy terminal residues 72-164 of p21; not shown: poly-histidine tag from vector pET15b) GLPKLYLPTGPRRGRDELGGGRRPGTSPALLQGTAEEDHVDLSLSCTLVPRSGEQAEGSPGGPGDSQGRKRRQTSMTDFYHSKRRLIFSKRKP |  |  |  |  | no binding | no binding |
